{"source": "the nanobody polyreactivity screen of Harvey et al. (2022)", "data": [{"assay": "yeast display, Sf9 membrane polyspecificity reagent, FACS + sequencing; frameworks hold sequencing errors", "how_it_was_run": "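Galactose-induced (36–48 hours) yeast carrying a synthetic nanobody display library were exposed to 10% biotinylated, detergent-solubilized Sf9 membrane reagent at 4 °C for 1 hour. FACS followed streptavidin microbead enrichment, using low and high (top ~1%) gates for expression (anti-HA) and reagent binding (streptavidin). Colony PCR, MiSeq 2 × 250 sequencing and CDR-length filtering followed. Labels for polyreactivity reflect the gate of origin.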", "values": [{"sequence": "QVQLVESGGGLVQAGGSLRLSCAASGRIFDANVMGGYRQAPGKERELVAAISSGGRTKYADSVKGRFTISRDNAKNTVYLQMNSLKPEDTAVYYCAKKHSPLYDYWGQGTQVTVSS", "polyreactivity (PSR sort gate)": "low polyreactivity"}, {"sequence": "QVQLVESGGGLVQAGGSLRLSCAASGRIFDDNAMGWYRQAPGKERELVASITVSTGSTYYADSVKGRFTISRDNAKNTVYLQMNSLKPEDTAVSYCAAPYITPYGTYVFSSDYWGQGTQVTVSS", "polyreactivity (PSR sort gate)": "low polyreactivity"}, {"sequence": "QVQLVESGGGLVQAGGSLRLSCAASGRIFDFYAMGWYSQAPGKERELVAAIASSVGNTYYADSVTGRFTISRDNAKNTVSLQMISLKPEDTAVYYCADYSYVRSSYEVEYDYWGQGTQVTVSS", "polyreactivity (PSR sort gate)": "low polyreactivity"}, {"sequence": "QVQLVESGGGLVQAGGSLRLSCAASGRIFDGNAMGWYRQAPWKERELVAAINRSGGRTYYADSVKGRFTISRDNAKNTVYLQMNSLKPEDTAVYYCATPYAGGTPADPGYDYWGQGTQVTVSS", "polyreactivity (PSR sort gate)": "high polyreactivity"}, {"sequence": "QVQLVESGGGLVQAGGSLRLSCAASGRIFDGYAMGWYRQAPGKERELVAAINRSGSSTYYADSVKGRFTISRDNAKNTVYLQMNSLKPEDTAVYYCNARSGNRYGPRYDYWGQGTQVTVSS", "polyreactivity (PSR sort gate)": "high polyreactivity"}, {"sequence": "QVQLVESGGGLVQAGGSLRLSCAASGRIFDINAMGWYRQAPGKESELVAAISRGGSTYYADSVKGRFTISRDNAKHTVDLQMNSLKPQDTAVYYCNKYRYRGSTVFDGYDYWGQGTQVTVSS", "polyreactivity (PSR sort gate)": "high polyreactivity"}, {"sequence": "QVQLVESGGGLVQAGGSLRLSCAASGRIFDIYAMGWYRQAPGKERELVAAITRGGSTYADSVKGRFTISRDNAKNTVYLQMNSLKPEDTAVYYCAARPRLPRQIGGDGHLDDYWGQGTQVTVSS", "polyreactivity (PSR sort gate)": "high polyreactivity"}, {"sequence": "QVQLVESGGGLVQAGGSLRLSCAASGRIFDIYAMGWYRQAPGKERELVAAITSGGSTYYADSVKGRFTNSRDNAKNTVYFQMNILKPEYTAVYYCAADSVLLKDTGYDYWGKGTQVTVSS", "polyreactivity (PSR sort gate)": "low polyreactivity"}, {"sequence": "QVQLVESGGGLVQAGGSLRLSCAASGRIFDIYTMGWYRQAPGKERELVASITKRGGSTYYADSVKGRFTISRDNAKNTVYLQMNSLKPEDTAVYYCNVAGKQKPYYVTTRLDYWGQGTQVTVSS", "polyreactivity (PSR sort gate)": "high polyreactivity"}, {"sequence": "QVQLVESGGGLVQAGGSLRLSCAASGRIFDKNAMGWYRQAPGKERELVAAISGGGRTYYADSVKGRFTISRDNAKNTVYLLMNSLKPEDTAVYYCNVPYYYTRGSYGYWGQGTQVTVSS", "polyreactivity (PSR sort gate)": "low polyreactivity"}, {"sequence": "QVQLVESGGGLVQAGGSLRLSCAASGRIFDKYAMGWYRQAPGKERYLVAAIDWSGGSTYYADSVKGRFTISRDNAKNTVYLQMNRLKPEDNAVYYCAAYWYYEDGQSEARLYGYDYWGQGTQVTVSS", "polyreactivity (PSR sort gate)": "low polyreactivity"}, {"sequence": "QVQLVESGGGLVQAGGSLRLSCAASGRIFDLNAMGWYSQAPGKERELVAAITTNDGDTYYADSVKGRFTISRDTAKNTVYLQMNSLKPEDTAVYYCAAVSGSTSEYEYWGQGTEVTVSS", "polyreactivity (PSR sort gate)": "low polyreactivity"}, {"sequence": "QVQLVESGGGLVQAGGSLRLSCAASGRIFDLNTMGWYRQAPGKERELVAAISSGGSTYYADSVNGRFTISRDNAKNTVYIQMNSLKPEDTAVYYCADAKIRGYLIRMYWGQRTQVTVSS", "polyreactivity (PSR sort gate)": "low polyreactivity"}, {"sequence": "QVQLVESGGGLVQAGGSLRLSCAASGRIFDNNAMGWYIQAPGKERELVAAIDWPGGSTDYADSVKGRFTISRDNAKNTVYLQMNSLIPEDTAVYYCVAGNVPYWHGNSYDYWGQGTQVTVSS", "polyreactivity (PSR sort gate)": "low polyreactivity"}, {"sequence": "QVQLVESGGGLVQAGGSLRLSCAASGRIFDNYAMGWYRQAPGKDREWVAAISSRGRSTYYADSVKGRFTISRDNAKNTVYLQMNSLKPEDTAVYYCAKDLGYRGRYNYWGQGTQVTVSS", "polyreactivity (PSR sort gate)": "low polyreactivity"}, {"sequence": "QVQLVESGGGLVQAGGSLRLSCAASGRIFDQNAMGWYRQAPGKERELVAAITWSGGSTNYADSVKGRFTISRDNAKNTVYLQMNSLKPEDTAVYYCATDGKPSFYSFDYWGQGTQVTVSS", "polyreactivity (PSR sort gate)": "low polyreactivity"}, {"sequence": "QVQLVESGGGLVQAGGSLRLSCAASGRIFDRNAMGWYRQAPGKERELVARIDPGDDTNYADSVKGRFTISRDNAKNTVYLQMNSLKPEDTAVYYCAADGVVVVAADMYYWGQGTQVTVSS", "polyreactivity (PSR sort gate)": "low polyreactivity"}, {"sequence": "QVQLVESGGGLVQAGGSLRLSCAASGRIFDRYAMGWYRQAPGKERELVAAISDRGGSTYYADSVKGRFTISRDNAKNTVYLQMNSLKPEDTAVFYCAKGPSGVRTYREYDSWGQGTQVTVSS", "polyreactivity (PSR sort gate)": "low polyreactivity"}, {"sequence": "QVQLVESGGGLVQAGGSLRLSCAASGRIFDSNAMGWYRQAPGKERELVAAITYSGGGTFYADSVKGRFTISRDNAKNTVYLQMNRLKPEDTAVYYCNAGYFTEYNSWGQGTQVTVSS", "polyreactivity (PSR sort gate)": "high polyreactivity"}, {"sequence": "QVQLVESGGGLVQAGGSLRLSCAASGRIFDTNVMGWYRQAPGKERELVAAISSGGSTYYADSVKGRFTISRDNAKNTVYLQMNSLKPEDTAVYFCAAESRTSRARRYYWGQGTQVTVSS", "polyreactivity (PSR sort gate)": "high polyreactivity"}, {"sequence": "QVQLVESGGGLVQAGGSLRLSCAASGRIFDVNAMGWYRQAPGKERELVAAITYSDGSTYYADSVTGRFTISRDNAKNTVYLQMNSLKPEDTAVDYCAATQEPVTPQPYGYWGQGTQVTVSS", "polyreactivity (PSR sort gate)": "low polyreactivity"}, {"sequence": "QVQLVESGGGLVQAGGSLRLSCAASGRIFDVYAMGWYRQAPGKERELVAGITYSGGSTYYADSVKGRFTISRDNAKNTVYVQMNSLKPEDTAVYYCAALNGDPYVQLLEDYWGQGTQVTVSS", "polyreactivity (PSR sort gate)": "low polyreactivity"}, {"sequence": "QVQLVESGGGLVQAGGSLRLSCAASGRIFDYNGMGWYRQAPGKERELVAAIRLSDGSTYYADSVKGRFTISRDNAKNTVYLQMNSQKPEDTAVYYCADVGKNRSWYDYWGQGSQVTVSS", "polyreactivity (PSR sort gate)": "high polyreactivity"}, {"sequence": "QVQLVESGGGLVQAGGSLRLSCAASGRIFDYNTMGWYRQAPGKEREFVAAITSSGGRTYYADSVKGRFTISRDNAKNTVYLQMNSLKPEDTAVYYCAARLNIYYRRMGYWGQGTQVTVSS", "polyreactivity (PSR sort gate)": "high polyreactivity"}, {"sequence": "QVQLVESGGGLVQAGGSLRLSCAASGRIFDYYAMGWYRQAPGKERELVAAISSSVGNTYYADSVKGRFTISRDNAKNTVYLQMNSLKPEDTAVYYFADYSYVRSSYEVEDDYWGQGTQVTVSS", "polyreactivity (PSR sort gate)": "low polyreactivity"}, {"sequence": "QVQLVESGGGLVQAGGSLRLSCAASGRIFDYYAMGWYRQAPGKERELVATITSGSRTYYADSVKGRFTISRDNAKNTVYLQMNSLKPEDTAVYYCNTVSFKRLGWRYDYWGQGTQVTVSS", "polyreactivity (PSR sort gate)": "high polyreactivity"}, {"sequence": "QVQLVESGGGLVQAGGSLRLSCAASGRIFDYYTMGWYRQAPGKERELVAGINSGDSTYYADYVKGRFTISRDNAKNTVYLQMNSLKPEDTAVYYCAASADWWYEYWGQGTQVTVSS", "polyreactivity (PSR sort gate)": "high polyreactivity"}, {"sequence": "QVQLVESGGGLVQAGGSLRLSCAASGRIFEIYAMGWYRQAPGKERELVAAITDSGGSTYYAYSVKGRFTISRDNAKNTVYLQINSLKPEDTAVYYCAAVGYSYETWLFYYWGQGTQVTVSS", "polyreactivity (PSR sort gate)": "low polyreactivity"}, {"sequence": "QVQLVESGGGLVQAGGSLRLSCAASGRIFEKYAMRWYREAPGKERELVAAMTRSGGRTYYADSVKGRFTISRDNAKNTVYLQMNSQKPEDTAVYYCAARYVSRFDWGQGTQVTVSS", "polyreactivity (PSR sort gate)": "high polyreactivity"}, {"sequence": "QVQLVESGGGLVQAGGSLRLSCAASGRIFEPYAMGWYRQAPGKERELVAAISWSGTSTRYADSVKGRFTISRDNAKNTVYLQMNSLKPEDTAVYYCAARGNNPARGGYWGQGTQVTVSS", "polyreactivity (PSR sort gate)": "high polyreactivity"}, {"sequence": "QVQLVESGGGLVQAGGSLRLSCAASGRIFERNAKGWYRQAPGKERELVAALTYNGGRTYYADSVKGRFTITRDNAKNTVYLQLNSLKPEDTAVYNCNAQSRVTRSSYRGSPRYDYWGQGTQVTVSS", "polyreactivity (PSR sort gate)": "high polyreactivity"}, {"sequence": "QVQLVESGGGLVQAGGSLRLSCAASGRIFERYAMGRYRQAPGKERELVAAISVSGSGTYYADSVKGRFTISRDNAKNTVYLQINSLKPEDTAVYYCAADASLLGLYYYLFYLEVNYWGQGTQVTVSS", "polyreactivity (PSR sort gate)": "low polyreactivity"}, {"sequence": "QVQLVESGGGLVQAGGSLRLSCAASGRIFERYAMGWYRQAPGKERELVAGISISGGGTYYADSVKGRFTISRDIAKNTVYFQMNSLKPEDTAVYYCAATFPREEYGYWGQGTQVTVSS", "polyreactivity (PSR sort gate)": "low polyreactivity"}, {"sequence": "QVQLVESGGGLVQAGGSLRLSCAASGRIFERYAMGWYRQAPGKERELVAGISISGGGTYYADSVKGRFTISRDNAKNTFYLQMNSLNPEDTAVYYCSATFPREEYGYWGQGTQVTVSS", "polyreactivity (PSR sort gate)": "low polyreactivity"}, {"sequence": "QVQLVESGGGLVQAGGSLRLSCAASGRIFEYNAMGWYRQAPGKERELVAAITSDGSTNYADSVKGRFTISRDNEKNTVYLQMNSLKPEDTAVYYCNTRYSLYTKYAYYDEHDYWGQGTQVTVSS", "polyreactivity (PSR sort gate)": "low polyreactivity"}, {"sequence": "QVQLVESGGGLVQAGGSLRLSCAASGRIFEYYAMGWYRQAPGKERELVAAIRSGGRTYYADSVKGRFTISRDNAKNTVYLQMNSLKPEDTAVYYCNKLYRGGYGYWGQGTQVTVSS", "polyreactivity (PSR sort gate)": "high polyreactivity"}, {"sequence": "QVQLVESGGGLVQAGGSLRLSCAASGRIFFIYAMGWYRQAPGKERELVAAISYDSGSTYYADSVKGRFTISRDNAKNTVSLQMNSLKPEDTAVYYCAAEWGLVIYSTYGYDYWGQGTQVTVSS", "polyreactivity (PSR sort gate)": "low polyreactivity"}, {"sequence": "QVQLVESGGGLVQAGGSLRLSCAASGRIFFLYAMGWSRQAPGKERELVAAITKSGGSTYADSVKGRYTISRDNAKNPVYLQMNSLKPEDTAVYYCATENTDSRDSGYIVKYGSDYWGQRTQVTVSS", "polyreactivity (PSR sort gate)": "low polyreactivity"}, {"sequence": "QVQLVESGGGLVQAGGSLRLSCAASGRIFFNSAMGWYRQAPGKERELVAAIRGGGSTYADSVKGRFTISRDNAKNTVYLQMNSLKPEDTAVYYCAARYSGSPYHTRRYYYWGQGTQVTVSS", "polyreactivity (PSR sort gate)": "high polyreactivity"}, {"sequence": "QVQLVESGGGLVQAGGSLRLSCAASGRIFFNYAMGWYRQAPGKERELVAAIRGGGSTYADSVKGRFTISRDNAKNTVYLQMNSLKPEDTAVYYCAARYSGSPYHTRRYYYWGQGTQVTVSS", "polyreactivity (PSR sort gate)": "high polyreactivity"}, {"sequence": "QVQLVESGGGLVQAGGSLRLSCAASGRIFFRYAMGWYRPAPGKEREFVAAISGSAGSTYYADSVKGRFKISRDNAKNTVYLQMNSLKPEDTAVYYCAARKAKVSNGLKYDYWGQGTQVTVSS", "polyreactivity (PSR sort gate)": "high polyreactivity"}, {"sequence": "QVQLVESGGGLVQAGGSLRLSCAASGRIFFSYAMGWYRQAPGKERELVAAITSGGSTNYADSVKGRFTISRDNAKNTVYLQMNSLKPEDTAVYYCNKARSSGYNFGYWGQGTQVTVSS", "polyreactivity (PSR sort gate)": "low polyreactivity"}, {"sequence": "QVQLVESGGGLVQAGGSLRLSCAASGRIFFTNAMGWYSQAPGKEREFVAAISKSGARTYYADSVKGRFTISRDNAKNTVYLQMISLKPEDTAVYYCAADVSVYGYYYWGQGTQVTVSS", "polyreactivity (PSR sort gate)": "high polyreactivity"}]}]}
